Source: patent US12678474B2, “Screening of fixed-point coupling sites of cysteine-modified antibody-toxin conjugate (TDC)” (SICHUAN BAILI PHARMACEUTICAL CO. LTD., priority 2017, dated 2026)

Columns and labels:
[1] = tested on: EGFRwt-overexpressing human skin squamous cell carcinoma cell line A431; experiment: MTS cytotoxicity (cell viability) assay, A431; type: cell-based; settings: antibodies; 72 hours
Experimental: (§1) TDC cytotoxic activity was determined via the following experimental procedure: TDC was added to EGFR-overexpressing or […]-expressing human tumor cell culture medium, and cell viability was determined after 72 hours of cell culture. Cell-based in vitro experiments were used to determine cell viability, cytotoxicity and programmed cell death induced by TDC constituted by the present invention.
(§2) In vitro efficacy of antibody-toxin conjugates was determined via a cell proliferation assay. A CellTiter ^96® AqueousOne Solution Cell was Proliferation Assay purchased commercially from Promega Corp. (Madison, WI). CellTiter ^96® Aqueous One Solution Cell Proliferation Assay (a) is a colorimetric method used to detect the number of living cells in cell proliferation and cytotoxicity experiments. The above reagent contains the novel tetrazole compound [3-(4,5-dimethylthiazol-2-yl)-5-(3-carboxymethoxyphenyl)-2-(4-sulfophenyl)-2H-tetrazolium, inner salt; MTS) as well as an electronic coupling agent (phenazine ethosulfate; PES). […] This convenient “single solution” model is an improvement on the first generation of the CellTiter ^96® Aqueous Assay, in which the electronic coupling agent PMS was supplied separately from the MTS solution. MTS (Owen's reagent) is reduced by cellular organisms into a colored formazan product, which can be directly dissolved in culture medium (FIG. 1). This conversion is likely facilitated by NADPH NADH produced by dehydrogenase present in metabolically active cells. For the assay, a small amount of CellTiter ^96® Aqueous One Solution Reagent is added directly to the medium present in the wells of the culture plate, after which incubation is performed for 1 to 4 hours, followed by reading of the absorbance value at 490 nm using a microplate reader.
(§3) The amount of formazan product detected at 490 nm is proportional to the number of viable cells in culture. Because the formazan product of MTS is soluble in tissue culture medium, CellTiter ^96® Aqueous One Solution Assay requires fewer steps than the MTT or INT methods. A431 (EGFR-overexpressing cells) and U87-[…] (an […] mutant stable cell line) were used in the present invention as an investigative system for performing in vitro efficacy assays. In 96-well plates, cells were plated at 6000 cells/well and 24 hours later, antibody spiking was carried out. […] Cell viability was assayed via MTS 72 hours after treatment.

[2] = tested on: EFGRvIII-overexpressing human glioma cell line U87-EGFRvIII; experiment: MTS cytotoxicity (cell viability) assay, U87-EGFRvIII; type: cell-based; settings: antibodies; 72 hours; read-out: IC50, U87MG-EGFRvIII (MTS)
Experimental: as §1, §2, §3

[3] = target: T1, Recombinant EGFRVIII-His*6 antigen (Homo sapiens, UniProt P00533, DELINS30-297G); experiment: ELISA relative affinity for EGFRvIII; type: binding; settings: EGFRvIII-coated plates, A450, read-out: EC50 (nM), mutant antibody affinity
T1 construct: His*6
Description: Insertion Mutation Modification and Parent Antibody 2A1 for EGFRvIII • ELISA was used to compare the relative affinities of 2A1-LC-Cys110ins-mc-vc-PAB-MMAE TDC, 2A1-LC-Cys111ins-mc-vc-PAB-MMAE TDC, 2A1-LC-Cys142ins-mc-vc-PAB-MMAE TDC, 2A1-HC-Cys254ins-mc-vc-PAB-MMAE TDC, 2A1-HC-Cys255ins-mc-vc-PAB-MMAE TDC, 2A1-HC-Cys258ins-mc-vc-PAB-MMAE TDC, 2A1-HC-Cys259ins-mc-vc-PAB-MMAE TDC, 2A1-HC-Cys354ins-mc-vc-PAB-MMAE TDC, 2A1-HC-Cys355ins-mc-vc-PAB-MMAE TDC, 2A1-HC-Cys357ins-mc-vc-PAB-MMAE TDC, 2A1-HC-Cys378ins-mc-vc-PAB-MMAE TDC, 2A1-HC-Cys379ins-mc-vc-PAB-MMAE TDC, 2A1-HC-Cys386ins-mc-vc-PAB-MMAE TDC, 2A1-HC-Cys387ins-mc-vc-PAB-MMAE TDC, 2A1-HC-Cys410ins-mc-vc-PAB-MMAE TDC, and 2A1 for EGFRvIII. The specific process used was as follows:
Recombinant […]-His*6 antigen was used to coat plates; fish skin gelatin was used as a seal; dilution of each insertion mutant antibody was performed separately, up to a maximum concentration 10 μg/ml and a 4-fold gradient dilution was performed for a total of 11 concentrations; HRP-labeled secondary antibodies were used for incubation; TMB was used for development and absorption detection was performed at 450 nm.

Molecule | IC50 [1] | IC50 [2] | EC50 [3]
2A1-HC-Cys387ins: 2A1 antibody with cysteine inserted at heavy chain position 387 (SEQ ID NO: 42) (antibody) heavy: DVQLQESGPSLVKPSQSLSLTCTVTGYSITSDFAWNWIRQFPGNKLEWMGYISYSGNTRYNPSLKSRISITRDTSKNQFFLQLNSVTIEDTATYYCVTAGRGFPYWGQGTLVTVSAASTKGPSVFPLAPSSKSTSGGTAALGCLVKDYFPEPVTVSWNSGALTSGVHTFPAVLQSSGLYSLSSVVTVPSSSLGTQTYICNVNHKPSNTKVDKRVEPKSCDKTHTCPPCPAPEFLGGPSVFLFPPKPKDTLMISRTPEVTCVVVDVSHEDPEVKFNWYVDGVEVHNAKTKPREEQYNSTYRVVSVLTVLHQDWLNGKEYKCKVSNKALPAPIEKTISKAKGQPREPQVYTLPPSRDELTKNQVSLTCLVKGFYPSDIAVEWESNGQPENNCYKTTPPVLDSDGSFFLYSKLTVDKSRWQQGNVFSCSVMHEALHNHYTQKSLSLSPG light: DILMTQSPSSMSVSLGDTVSITCHSSQDINSNIGWLQQRPGKSFKGLIYHGTNLDDEVPSRFSGSGSGADYSLTISSLESEDFADYYCVQYAQFPWTFGGGTKLEIKRTVAAPSVFIFPPSDEQLKSGTASVVCLLNNFYPREAKVQWKVDNALQSGNSQESVTEQDSKDSTYSLSSTLTLSKADYEKHKVYACEVTHQGLSSPVTKSFNRGEC | > 10 µM | > 10 µM | 0.0452 nM
2A1-HC-Cys410ins: 2A1 antibody with cysteine inserted at heavy chain position 410 (SEQ ID NO: 44) (antibody) heavy: DVQLQESGPSLVKPSQSLSLTCTVTGYSITSDFAWNWIRQFPGNKLEWMGYISYSGNTRYNPSLKSRISITRDTSKNQFFLQLNSVTIEDTATYYCVTAGRGFPYWGQGTLVTVSAASTKGPSVFPLAPSSKSTSGGTAALGCLVKDYFPEPVTVSWNSGALTSGVHTFPAVLQSSGLYSLSSVVTVPSSSLGTQTYICNVNHKPSNTKVDKRVEPKSCDKTHTCPPCPAPEFLGGPSVFLFPPKPKDTLMISRTPEVTCVVVDVSHEDPEVKFNWYVDGVEVHNAKTKPREEQYNSTYRVVSVLTVLHQDWLNGKEYKCKVSNKALPAPIEKTISKAKGQPREPQVYTLPPSRDELTKNQVSLTCLVKGFYPSDIAVEWESNGQPENNYKTTPPVLDSDGSFFLYSKLTVDCKSRWQQGNVFSCSVMHEALHNHYTQKSLSLSPG light: DILMTQSPSSMSVSLGDTVSITCHSSQDINSNIGWLQQRPGKSFKGLIYHGTNLDDEVPSRFSGSGSGADYSLTISSLESEDFADYYCVQYAQFPWTFGGGTKLEIKRTVAAPSVFIFPPSDEQLKSGTASVVCLLNNFYPREAKVQWKVDNALQSGNSQESVTEQDSKDSTYSLSSTLTLSKADYEKHKVYACEVTHQGLSSPVTKSFNRGEC | > 10 µM | > 10 µM | 0.042 nM
